Molecular target: the molecule itself
Assay: crystal structure

B1: A. baumannii GuaB with CBS domain deletion protein (M1-G488_ΔM93-R201) (enzyme)
chain: MLTIVQEALTFDDVLLLPAYSTVLPKDVSLKTRLTRGIYLNIPLVSAAMDTVTESRMAIAMAQNGGIGILHKNMDIAAQAAEVRRVKKFEAGKAESYPNSCKDDLGRLRVGAAVGTGADTPSRVEALVEAGVDVIVVDTAHGHSAGVIERVRWVKQNFPQVQVIGGNIATGDAALALLDAGADAVKVGIGPGSICTTRIVAGIGMPQISAIDSVASALKDQIPLIADGGIRFSGDMAKAIGAGASTIMVGSLLAGTEEAPGEVEFFQGRYYKAYRGMGSLGAMAGATGSADRYFQDSKAGAEKLVPEGIEGRVPYKGPMGNIVHQMMGGLRSSMGYTGSAVIEDLRQNAKFVKITSAGMSESHVHDVTITKEAPNYRVG
notes: also called A. baumannii GuaBΔCBS; GuaB^Ab; source: expressed, purified, and crystallized as described (28)
- binding result: binds

Source: PMC11500612, “Differential effects of inosine monophosphate dehydrogenase (IMPDH/GuaB) inhibition in Acinetobacter baumannii and Escherichia coli” (Journal of Bacteriology, 2024)
